From the DeepSol protein solubility set

Assay: soluble on expression in E. coli; label from the status in PepcDB or PDB records

Sequence | soluble on expression in E. coli
DWEVETGERYLPKLPECKIDNSKYQHPIQVVPSGPGMPEYLIYQVLTLAINQANRSVRITTPYFVPNTDLLETLKMTAQRGIDVELIIPHKNDSLMVQWASRAFYSELLAAGVKIYEFYGGLLHTKSVVIDDQFCLVGTVNMDMRSLWLNFEVTLAVDDEEFTKQLSWLQDGYIKQSHPVVLDEWEKRSLYSRFLERVFYLFNPLL | not soluble
MGSDKIHHHHHHMSDAHYDMHKRNGYSSDEPYPEIKVLGPNKYYAELLMDDYAGVSSEFTSVNQYLYHNFDLDETHRELSEMWINISITEMLHMEILAKTIRLLGGNPVYRGSTSSCGAYWNGGFVCYGNSICNRLKLDLHLEHVAINNYYKDISLIEDPYIKAILNRIILDEKLHVSLFEKAIEKYCK | not soluble
MKFNKSTMEANGDTSACNGYSDKQRKDVRVWCDGCYDMVHFGHANSLRQAKALGDKVIVGIHTDEEITKHKGPPVFTEEERVKMVKGIKWVDEVVLGAPYVTTLDVLDQNNCDFCVHGDDITMTAEGVDTYHLVKSANRYKEVKRTAGVSTTD | not soluble
MWRLYRKTPKQLRNSVESCFKSVNSRQFSVSSFSAVAKDDKSVLKQQEVLHLLAKDQRFEERFFNQVQQTIRYFASKPNDLKKFFRKEASTDNKESSSSSDKKDSKGNKGEDNNPFNQFPGGWQQIAVSVGILLALYAFMDYQSYREISWKEFYSDFLEAGLVERLEVVDKRWVRIVSSSGKYAGQTCYFNIGSVDSFERSLGAAQHHLQYDADRQIPVLYKSEFNFKREIPNLISVAFPLLFGYYIYRMLKGGGAAGGAGRAGGGGLGGMFGGFGQSTARVINREDIKVKFADVAGCEEAKIEIMEFVNFLKNPQQYKDLGAKIPKGAILTGPPGTGKTLLAKATAGEANVPFITVSGSEFLEMFVGVGPARVRDMFSMARKNSPCILFIDEIDAVGRKRGGKGGMGGHSEQENTLNQLLVEMDGFTTDESSVIVIAATNRVDILDSALLRPGRFDRQIYVPVPDIKGRASIFRVHLGPLRTSLDKTVLSRKLAAHTPGFSGADISNVCNEAALIAARDANHEISNKHFEQAIERVVAGMEKKTQVLQKEEKKTVAYHEAGHAIAGWFLQHADPLLKVSIIPRGKGLGYAQYLPKEQYLYSKDQLLDRMCMTLGGRVAEEIFFGRITTGAQDDLQKVTQMAYSQVVKFGMSEKVGPLSFETPAPGEMAFDKPYSEATAQLIDQEVRDLVMNALRRTRDLLLEKRSDIERVALRLLEKEILNREDMIELVGKRPFVEKNTYEEMVSGTGGLDENVELPKGLENWNKESEKKKKDEEKKKNDE | not soluble
MKNNVKNWTTKEVKQSLDKFNNILIKNTFLLQYLKKEFSASSAYCLSMLPEEEDIYEILVNGNIIIDLEFNKHTNETVVINVTDVDEYLKTLTNESGRVFFTLAKEIGKQKNI | not soluble
MGSDKIHHHHHHMQIGEVYFWTSTIKDWKNLLHQDKYKLLIIHCLKELVDRKMIKVYAFVIMPNHIHIVWEMLDQNGKEMPHASFNKKTAHEIVKDLKFNHPLVLPFFKVNEKEREYRIWQRDPLAIEMDSKKKAEQKIDYIHKNPLHERWNLAASPEEYYWSSAMYYQTGEDKFGFLTHYMERF | not soluble
MLLYMRFTENFERAKKEALMSLEIALRKGEVDEDIIPLLKKINSIENYFTTSSCSGRISVMEMPHFGDKVNAKWLGKWHREVSLYEVLEAIKKHRSGQLWFLVRSPILHVGAKTLEDAVKLVNLAVSCGFKYSNIKSISNKKLIVEIRSTERMDVLLGENGEIFVGEEYLNKIVEIANDQMRRFKEKLKRLESKINALNR | soluble
MAHHHHHHMSSEHWVFFGLPPFFTEQHSSATLDRQCTLWSNLLLDHAIYHAQRTAGGDTNALLRFYTTQSDIFYNPAINKRLSPEGAHTMLQSLVARHPNHVVIVSDGGPRDFSVLVCTTEDGFKGMEETLLRYILDHGEVQTTAMLSKKGTVMTFDELASGAALGYGQTRSAYLARFSSAAVPVADVGRLSEEQAIRMYLHALNRRPVSAMRPFKVTLFNLDGTATQPYQGVKFGGE | soluble
MSGELSNRFQGGKAFGLLKARQERRLAEINREFLCDQKYSDEENLPEKLTAFKEKYMEFDLNNEGEIDLMSLKRMMEKLGVPKTHLEMKKMISEVTGGVSDTISYRDFVNMMLGKRSAVLKLVMMFEGKANESSPKPVGPPPERDIASLP | soluble
